Among the data in the supplement of paper PMC10567573 are protein stability index values, retold here.

To fix the notation:
B1: KCNA4 (parent)
chain: YQLGEEALLKFREDEGFVREEEDR
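Note: lentivirally expressed fusions sorted by FACS into six bins by GFP to DsRed ratio, PSI derived from sequencing read proportions per bin multiplied by bin number.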

The data set covers variants of B1. The data set can be described thus: protein stability index of a GFP-peptide fusion (GPS, HEK-293T) (PSI 1-6); higher = more stable. The conditions noted are these: c terminus: a fixed tail appended.
In the case of YQLGEEALLKTREDEGFVREEEDR [F11T], the protein stability index turned out to be 5.27. In the case of YQLGEEALLKCREDEGFVREEEDR [F11C], the protein stability index was 4.63. The figure for YQLGEEALLKYREDEGFVREEEDR [F11Y] is 5.46; for YQLGEEALLKDREDEGFVREEEDR [F11D] it is 5.83. Take YQLGEEALLKGREDEGFVREEEDR [F11G]: the protein stability index was determined as 5.61.

For YQLGEEALLKWREDEGFVREEEDR [F11W], the protein stability index was found to be 4.21. As for YQLGEEALLKKREDEGFVREEEDR [F11K], the protein stability index was 5.48. With YQLGEEALLKHREDEGFVREEEDR [F11H], the protein stability index turned out to be 5.21. As to YQLGEEALLKIREDEGFVREEEDR [F11I], the protein stability index came out at 5.12. The figure for YQLGEEALLKQREDEGFVREEEDR [F11Q] is 5.1. As for YQLGEEALLKNREDEGFVREEEDR [F11N], the protein stability index amounted to 5.75.

As for YQLGEEALLKFREFEGFVREEEDR [D14F], the protein stability index stood at 3.78. For YQLGEEALLKFREAEGFVREEEDR [D14A], the protein stability index turned out to be 3.32. With YQLGEEALLKFREHEGFVREEEDR [D14H], the protein stability index was 3.64. The figure for YQLGEEALLKFRECEGFVREEEDR [D14C] is 4. With YQLGEEALLKFREIEGFVREEEDR [D14I], the protein stability index is 4.

In the case of YQLGEEALLKFREGEGFVREEEDR [D14G], the protein stability index turned out to be 3.45.

In the case of YQLGEEALLKFREEEGFVREEEDR [D14E], the protein stability index was found to be 4.18. On to YQLGTEALLKFREDEGFVREEEDR [E5T], for which the protein stability index worked out at 4.2. On to YQLGGEALLKFREDEGFVREEEDR [E5G], for which the protein stability index was 3.87. Turning to YQLGCEALLKFREDEGFVREEEDR [E5C], the protein stability index is 4.32. For YQLGREALLKFREDEGFVREEEDR [E5R], the protein stability index stood at 3.48.

As to YQLGKEALLKFREDEGFVREEEDR [E5K], the protein stability index is 3.3. Regarding YQLGSEALLKFREDEGFVREEEDR [E5S], the protein stability index was 4.38.

Consider YQLGNEALLKFREDEGFVREEEDR [E5N], for which the protein stability index came to 4.22. Turning to YQLGIEALLKFREDEGFVREEEDR [E5I], the protein stability index was found to be 3.55.

With YQLGPEALLKFREDEGFVREEEDR [E5P], the protein stability index was found to be 4.11.

In the case of YQLGMEALLKFREDEGFVREEEDR [E5M], the protein stability index was found to be 3.37.

YQLGLEALLKFREDEGFVREEEDR [E5L]: the protein stability index stood at 3.83. As for YQLGYEALLKFREDEGFVREEEDR [E5Y], the protein stability index was 3.21. For YQLGWEALLKFREDEGFVREEEDR [E5W], the protein stability index came out at 1.63. The figure for YQLGQEALLKFREDEGFVREEEDR [E5Q] is 3.92. For the variant YQLGFEALLKFREDEGFVREEEDR [E5F], the protein stability index was determined as 2.93.

With YQLGVEALLKFREDEGFVREEEDR [E5V], the protein stability index is 3.86. With YQLGDEALLKFREDEGFVREEEDR [E5D], the protein stability index was 4.97. For YQLGAEALLKFREDEGFVREEEDR [E5A], the protein stability index stood at 3.65. Turning to YQLGHEALLKFREDEGFVREEEDR [E5H], the protein stability index was determined as 3.76.

For YQLGEEADLKFREDEGFVREEEDR [L8D], the protein stability index amounted to 5.6. In the case of YQLGEEAKLKFREDEGFVREEEDR [L8K], the protein stability index turned out to be 5.04. Turning to YQLGEEAVLKFREDEGFVREEEDR [L8V], the protein stability index was determined as 5.58. Regarding YQLGEEANLKFREDEGFVREEEDR [L8N], the protein stability index is 5.5. Then YQLGEEAELKFREDEGFVREEEDR [L8E], with 5.5. Take YQLGEEAYLKFREDEGFVREEEDR [L8Y]: the protein stability index was found to be 5.21. Then YQLGEEAFLKFREDEGFVREEEDR [L8F], with 4.43. With YQLGEEAGLKFREDEGFVREEEDR [L8G], the protein stability index amounted to 5.48.

As to YQLGEEAWLKFREDEGFVREEEDR [L8W], the protein stability index was determined as 3.55. As to YQLGEEAPLKFREDEGFVREEEDR [L8P], the protein stability index was determined as 5.13.

Turning to YQLGEEATLKFREDEGFVREEEDR [L8T], the protein stability index was 4.88. With YQLGEEAQLKFREDEGFVREEEDR [L8Q], the protein stability index was determined as 5.65. Take YQLGEEACLKFREDEGFVREEEDR [L8C]: the protein stability index was found to be 4.98. In the case of YQLGEEASLKFREDEGFVREEEDR [L8S], the protein stability index is 5.47. Consider YQLGEEAHLKFREDEGFVREEEDR [L8H], for which the protein stability index came to 5.62. Turning to YQLGEEARLKFREDEGFVREEEDR [L8R], the protein stability index stood at 5.13. On to YQLGEEAALKFREDEGFVREEEDR [L8A], for which the protein stability index came to 4.93. Regarding YQLGEEAILKFREDEGFVREEEDR [L8I], the protein stability index was 5.21. As to YQLGEEAMLKFREDEGFVREEEDR [L8M], the protein stability index stood at 4.56.

On to YQLGEEALLKFRGDEGFVREEEDR [E13G], for which the protein stability index turned out to be 3.71. YQLGEEALLKFRNDEGFVREEEDR [E13N]: the protein stability index stood at 4.5.

YQLGEEALLKFRKDEGFVREEEDR [E13K]: the protein stability index was determined as 4.

Consider YQLGEEALLKFRQDEGFVREEEDR [E13Q], for which the protein stability index was 4.3. The figure for YQLGEEALLKFRCDEGFVREEEDR [E13C] is 2.42.

Consider YQLGEEALLKFRADEGFVREEEDR [E13A], for which the protein stability index worked out at 3.23.

As for YQLGEEALLKFRWDEGFVREEEDR [E13W], the protein stability index was 2.39.

With YQLGEEALLKFRPDEGFVREEEDR [E13P], the protein stability index was found to be 4.22. For the variant YQLGEEALLKFRFDEGFVREEEDR [E13F], the protein stability index came out at 3.63. The figure for YQLGEEALLKFRLDEGFVREEEDR [E13L] is 4.45; for YQLGEEALLKFRVDEGFVREEEDR [E13V] it is 3.81. With YQLGEEALLKFRMDEGFVREEEDR [E13M], the protein stability index stood at 3.84. Consider YQLGEEALLKFRHDEGFVREEEDR [E13H], for which the protein stability index was found to be 3.96. Then YQLGEEALLKFRYDEGFVREEEDR [E13Y], with 4.02; and YQLGEEALLKFRSDEGFVREEEDR [E13S], with 3.37. Consider YQLGEEALLKFRDDEGFVREEEDR [E13D], for which the protein stability index is 4.11. Turning to YQLGEEALLKFRRDEGFVREEEDR [E13R], the protein stability index was determined as 4.54. Turning to YQLGEEALLKFRTDEGFVREEEDR [E13T], the protein stability index amounted to 4.43. For YQLGEEALLKFRIDEGFVREEEDR [E13I], the protein stability index was determined as 3.32. As for YQLGEEALLKFHEDEGFVREEEDR [R12H], the protein stability index is 4.75. Turning to YQLGEEALLKFYEDEGFVREEEDR [R12Y], the protein stability index was 4.59.

On to YQLGEEALLKFWEDEGFVREEEDR [R12W], for which the protein stability index was found to be 2.34. On to YQLGEEALLKFGEDEGFVREEEDR [R12G], for which the protein stability index is 5.08.

On to YQLGEEALLKFSEDEGFVREEEDR [R12S], for which the protein stability index came out at 4.66. On to YQLGEEALLKFTEDEGFVREEEDR [R12T], for which the protein stability index came to 3.98. For YQLGEEALLKFDEDEGFVREEEDR [R12D], the protein stability index was found to be 5.54. Then YQLGEEALLKFPEDEGFVREEEDR [R12P], with 5.62. The figure for YQLGEEALLKFQEDEGFVREEEDR [R12Q] is 4.59; for YQLGEEALLKFLEDEGFVREEEDR [R12L] it is 4.4. For the variant YQLGEEALLKFKEDEGFVREEEDR [R12K], the protein stability index amounted to 4.92. For YQLGEEALLKFIEDEGFVREEEDR [R12I], the protein stability index was determined as 4.15. Then YQLGEEALLKFMEDEGFVREEEDR [R12M], with 4.06; and YQLGEEALLKFNEDEGFVREEEDR [R12N], with 5.17; and YQLGEEALLKFCEDEGFVREEEDR [R12C], with 3.02. In the case of YQLGEEALLKFEEDEGFVREEEDR [R12E], the protein stability index came out at 5.21. As to YQLGEEALLKFAEDEGFVREEEDR [R12A], the protein stability index came out at 4.41.

For the variant YQLGEEALLKFFEDEGFVREEEDR [R12F], the protein stability index is 4.62. Regarding YQLGEEALLKFVEDEGFVREEEDR [R12V], the protein stability index is 3.81.
